Values joined by “and” are separate entries in the source; they are usually repeats but may differ in a detail not shown here. Equal values may be shown once.
Molecular target: anti-Savinase antibody
Test: ELISA, anti-Savinase antibody binding of the variant against Savinase as reference

Substance | Antibody binding capacity shown as Delta-binding
Savinase variant E136R (from UniProt P29600 1-269) (enzyme) | 2.8 fold
Savinase variant N18D (from UniProt P29600 1-269) (enzyme) | 2 fold
Savinase variant N140D + A172D (from UniProt P29600 1-269) (enzyme) | 3.8 fold
Savinase variant R247E (from UniProt P29600 1-269) (enzyme) | 2 fold
Savinase variant R247Q (from UniProt P29600 1-269) (enzyme) | 2 fold
Savinase variant R275E (from UniProt P29600 1-269) (enzyme) | 2 fold
Savinase variant S57P + R170L (from UniProt P29600 1-269) (enzyme) | 2.1 fold
Savinase variant S57P + R170L + R247Q (from UniProt P29600 1-269) (enzyme) | 2.1 fold and 2 fold
Savinase variant Y167I + R170L + N218S (from UniProt P29600 1-269) (enzyme) | 4.8 fold

The next lines start with the values.

Antibody binding capacity shown as Delta-binding | Substance
2.9 fold | Savinase variant D181N (from UniProt P29600 1-269) (enzyme)
2.1 fold | Savinase variant E136R + N140D (from UniProt P29600 1-269) (enzyme)
2.4 fold | Savinase variant R170F (from UniProt P29600 1-269) (enzyme)
2.1 fold | Savinase variant R170L + Q206E (from UniProt P29600 1-269) (enzyme)
2 fold | Savinase variant R247H (from UniProt P29600 1-269) (enzyme)
2 fold | Savinase variant R247K (from UniProt P29600 1-269) (enzyme)
3 fold | Savinase variant S57P + Y167F + R247Q (from UniProt P29600 1-269) (enzyme)
3.2 fold | Savinase variant Y167I + R170L + A194P + N218S (from UniProt P29600 1-269) (enzyme)
